From publication PMC7881039

Assays:
[1] = target: human cystatin C (Cst-3), E. coli expressed (human) (UniProt P01034); experiment: SEC; gel permeation on Superdex 200 in 20 mM Tris, 150 mM NaCl, pH 7.1, after cation exchange; monomer and dimer told by elution
papain = papain (UniProt P00784)
Sequence of UniProt P00784 (P00784 134-345): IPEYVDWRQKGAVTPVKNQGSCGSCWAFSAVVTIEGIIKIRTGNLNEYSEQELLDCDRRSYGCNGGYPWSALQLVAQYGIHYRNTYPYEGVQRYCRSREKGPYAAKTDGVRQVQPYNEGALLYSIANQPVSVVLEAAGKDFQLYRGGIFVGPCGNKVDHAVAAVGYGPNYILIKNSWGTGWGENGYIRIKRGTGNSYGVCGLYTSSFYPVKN

stoichiometry N [1] | inhibition of papain activity (colorimetric peptide substrate Z-Phe-Arg-pNA, pH 5.5) by 60 nM Cst-3 preincubated with equimolar heparin or HS hexasaccharide, against apo Cst-3 (papain) | Substance
2 | – | human cystatin C (Cst-3), E. coli expressed (from UniProt P01034 27-146) (natural protein)
– | 80% | murine cystatin C (Cst-3), E. coli expressed (from UniProt P21460 21-140) (natural protein)
